Our source for the Kd values is PMC6428923 (Biophysical Journal, 2019).

Where no end group is shown, it is not given here. The star is where a group is joined. Farnesyl = CC(C)=CCC/C(C)=C/CC/C(C)=C/C*

As a reminder, the Kd is the concentration at which binding is half-saturated.

The target in experiment [1] is calmodulin (CaM), full-length, amino acids 2-148 (human, UniProt P0DP23 2-148). In words: ITC.
For experiment [2] the target is unchanged. In words: ITC. The source holds these as a separate data set.

In experiment [1], KSKTKC(geranyl) (not fully specified (C-terminus); also: methylated (site not given here)) [KSKTKC-geranyl methylated (KSKTKC-GMe)] showed a Kd of 3 µM. Turning to KSKTKC (not fully specified; cysteine with a five-carbon prenyl group, methylated (PMe)) [KSKTKC-prenyl methylated (KSKTKC-PMe)], in experiment [1], binding was characterised by a dissociation constant (Kd) of 30 µM.

Take HKEKMSKDGKKKKKKSKTKC(Farnesyl)-OMe [HVR-FMe (hypervariable region of KRAS4b, farnesylated and carboxy-methylated)]: binding in experiment [2] was put at a Kd of 0.3 µM.

With KSKTKC(Farnesyl)-OMe [KSKTKC-FMe], the affinity in experiment [1], expressed as Kd, was 0.4 µM.
